We go through 167 variants from the RNAGym collection of RNA variant scans (doi:10.7554/elife.80360).

The labels stand for the following.
B1: HDV Ribozyme (parent)
chain: GGCCGGCAUGGUCCCAGCCUCCUCGCUGGCGCCGGCUGGGCAACAUUCCGAGGGGACCGUCCCCUCGGUAAUGGCGAAUGGGACCCA

In the series the parent is B1. Briefly: self-cleavage, relative activity (ratio to wild type); higher = more cleavage; co-transcriptional.
With C64U C85G, the self-cleavage was found to be 0.851.

Consider G17C G34C, for which the self-cleavage was 0.0723.

Turning to U20C C26G, the self-cleavage was 0.0923.

In the case of C19G C33G, the self-cleavage is 0.

Turning to G17U G53A, the self-cleavage came out at 0.641.

With C32A G52U, the self-cleavage was 0.134.

U46A G76U: the self-cleavage is 0.954.

For C44A U69C, the self-cleavage was found to be 0.677.

As for C15A U79A, the self-cleavage is 0.519.

G28C A78U: the self-cleavage was 0.0811.

G28C C84A: the self-cleavage was 0.135.

For the variant A70G A71U, the self-cleavage came out at 0.852.

In the case of G35C G39C, the self-cleavage turned out to be 0.119.

On to G1C C85G, for which the self-cleavage was 0.151.

Turning to C61U G80A, the self-cleavage is 0.242.

Regarding G2U G35A, the self-cleavage was determined as 0.0308.

On to C4A C7A, for which the self-cleavage came to 0.0449.

With C15A A16G, the self-cleavage came to 0.35.

Consider C3U U27A, for which the self-cleavage is 0.701.

With G54U C84G, the self-cleavage was found to be 0.529.

As to G6A U27A, the self-cleavage is 0.514.

G31C G68A: the self-cleavage is 0.372.

As to A8U C85U, the self-cleavage was 1.09.

With C24G G55A, the self-cleavage stood at 0.166.

A16U U23G: the self-cleavage stood at 0.575.

With U47A G54A, the self-cleavage was 0.95.

As to C19A G81A, the self-cleavage came to 0.0449.

U27G G67C: the self-cleavage turned out to be 0.653.

With G5C G81A, the self-cleavage was 0.104.

For C13G U72G, the self-cleavage came to 0.0923.

With G38U G81C, the self-cleavage was 0.0678.

With G17U C30U, the self-cleavage was determined as 0.716.

Turning to C4U G81U, the self-cleavage stood at 0.0723.

Turning to G6U U72A, the self-cleavage came to 0.0665.

For C30A G40A, the self-cleavage turned out to be 0.462.

As for A16G C44A, the self-cleavage stood at 0.748.

Consider C49G A71G, for which the self-cleavage came out at 0.72.

As to U20G C58U, the self-cleavage was found to be 0.237.

As to G54C U60G, the self-cleavage is 0.895.

For U46A G59A, the self-cleavage stood at 0.78.

In the case of G38A U79G, the self-cleavage amounted to 0.151.

Turning to C66A A78C, the self-cleavage amounted to 0.142.

For A16U C24G, the self-cleavage amounted to 0.237.

As for A8C G52C, the self-cleavage was determined as 0.957.

In the case of G50U G54U, the self-cleavage came out at 0.668.

In the case of G50U G80C, the self-cleavage stood at 0.111.

Turning to A56U C58A, the self-cleavage is 1.16.

C44A G55U: the self-cleavage came out at 0.698.

Turning to A43G A56U, the self-cleavage was 0.688.

U27A G40C: the self-cleavage is 0.151.

In the case of C15U A78G, the self-cleavage amounted to 0.332.

With C4G G29U, the self-cleavage turned out to be 0.0292.

In the case of G6U C41A, the self-cleavage was determined as 0.269.

With C15A U65G, the self-cleavage was 0.653.

C36U G54A: the self-cleavage stood at 0.494.

With U9G G67C, the self-cleavage was found to be 1.08.

For the variant C13G G17C, the self-cleavage stood at 0.138.

U12C U79C: the self-cleavage was found to be 0.133.

Regarding G25C C48G, the self-cleavage was 0.133.

As to C3G C30G, the self-cleavage came to 0.0594.

For C61G C84G, the self-cleavage is 0.386.

Consider G10C C62U, for which the self-cleavage was 0.989.

In the case of A56G C66A, the self-cleavage worked out at 0.909.

As for G25A U37G, the self-cleavage worked out at 0.104.

Turning to G39U U47C, the self-cleavage amounted to 0.393.

As to C58U C63U, the self-cleavage was 1.04.

Turning to C24U C41G, the self-cleavage came out at 0.437.

Take G28U U37A: the self-cleavage was found to be 0.0773.

Regarding G10U A87C, the self-cleavage is 0.801.

For C32A A83C, the self-cleavage was 0.0665.

Turning to C7U G28U, the self-cleavage came out at 0.0712.

C48U U69C: the self-cleavage came to 1.07.

In the case of C18U C19U, the self-cleavage was 0.

On to C19G U37A, for which the self-cleavage worked out at 0.0627.

On to C7A U65A, for which the self-cleavage is 0.356.

Turning to C75G C85U, the self-cleavage was 0.237.

As to C14G U60A, the self-cleavage was determined as 0.831.

For G50C G82A, the self-cleavage is 0.364.

Consider G28U G52A, for which the self-cleavage was 0.0733.

U72C G73C: the self-cleavage came out at 0.208.

With U60A U65A, the self-cleavage amounted to 0.831.

For the variant A8G G53C, the self-cleavage came out at 1.03.

On to C30U A51U, for which the self-cleavage worked out at 0.791.

With G38A U60A, the self-cleavage turned out to be 0.117.

As to C3U G74C, the self-cleavage was determined as 0.0712.

For C26G G52C, the self-cleavage is 0.889.

As to G6A C13G, the self-cleavage stood at 0.

On to G1C U47G, for which the self-cleavage amounted to 0.128.

For the variant U60C U79G, the self-cleavage came out at 0.554.

As to G1A U79G, the self-cleavage came out at 0.0923.

For the variant A8C C75U, the self-cleavage stood at 0.128.

In the case of G10A G29C, the self-cleavage is 0.0767.

As to G11U G80U, the self-cleavage was 0.113.

Consider G55C A77G, for which the self-cleavage is 1.1.

With G39U C75G, the self-cleavage is 0.0978.

Turning to C61A C62G, the self-cleavage turned out to be 0.892.

Regarding G39A C75A, the self-cleavage came to 0.0755.

Consider C30G A83G, for which the self-cleavage was determined as 0.

For the variant G1A G50U, the self-cleavage stood at 0.128.

Turning to C44U C75U, the self-cleavage came to 0.157.

Turning to C18U U46G, the self-cleavage stood at 0.277.

Consider C36G A78U, for which the self-cleavage came out at 0.0346.

For the variant G25U G67A, the self-cleavage came out at 0.227.

Regarding C57U G59U, the self-cleavage is 1.2.

For C22A U60G, the self-cleavage is 0.177.

As to G1C A16G, the self-cleavage is 0.196.

With G34A C61U, the self-cleavage is 0.213.

Turning to C49G G54U, the self-cleavage was determined as 0.519.

Take G59A G74C: the self-cleavage is 0.198.

Consider C3G C13U, for which the self-cleavage turned out to be 0.229.

With G11U C19A, the self-cleavage was found to be 0.0382.

With C66A G82C, the self-cleavage came to 0.34.

In the case of C13U A71C, the self-cleavage is 0.639.

As to A16G U69C, the self-cleavage came out at 1.15.

For the variant C32A G82C, the self-cleavage came out at 0.0396.

As to C32A G35C, the self-cleavage stood at 0.0405.

For G11U G52U, the self-cleavage came out at 0.561.

For the variant G25A A77G, the self-cleavage was determined as 0.

As to C3A G50A, the self-cleavage turned out to be 0.545.

For the variant C4G A78C, the self-cleavage was found to be 0.0923.

For the variant G10A G17A, the self-cleavage was found to be 0.724.

As for G25A G59A, the self-cleavage came out at 0.189.

For G50C A83C, the self-cleavage came out at 0.317.

For the variant C32U U79G, the self-cleavage amounted to 0.504.

As for C3U G31C, the self-cleavage came to 0.168.

Regarding C33U G68C, the self-cleavage stood at 0.789.

As to C3G C14A, the self-cleavage came to 0.383.

As for G17U G76A, the self-cleavage is 0.73.

As for C22A G55U, the self-cleavage is 0.353.

As for C32U C48A, the self-cleavage was 1.04.

In the case of G39A G40C, the self-cleavage came to 0.459.

Turning to G17A C22A, the self-cleavage was determined as 0.128.

U69A G74A: the self-cleavage is 0.511.

As to G50U G73A, the self-cleavage was determined as 0.634.

As to G2A A70U, the self-cleavage worked out at 0.228.

In the case of G17A G35U, the self-cleavage turned out to be 0.0906.

As for G29C A56U, the self-cleavage turned out to be 0.0755.

With C30U C44U, the self-cleavage turned out to be 0.289.

Turning to U9A A42U, the self-cleavage worked out at 0.688.

For the variant A43G G74A, the self-cleavage turned out to be 0.724.

On to U37G C57A, for which the self-cleavage amounted to 0.0978.

Regarding C48G G67A, the self-cleavage was found to be 0.91.

Take G17C G82C: the self-cleavage is 0.133.

C21G G76C: the self-cleavage came to 0.

In the case of A43G C48G, the self-cleavage worked out at 0.719.

Regarding G10C C58U, the self-cleavage was 1.23.

As to G59C C63U, the self-cleavage worked out at 1.11.

Regarding C14A C26U, the self-cleavage was 1.07.

Take U9C C32G: the self-cleavage turned out to be 0.

G38U A78C: the self-cleavage is 0.086.

Consider U47C G68A, for which the self-cleavage worked out at 0.867.

C64A C86U: the self-cleavage came to 0.886.

Consider C49U A51G, for which the self-cleavage came to 1.01.

With G29C C66U, the self-cleavage was 0.0573.

For G1C G52C, the self-cleavage came out at 0.256.

In the case of G59A C62U, the self-cleavage amounted to 1.22.

As to A51U U65G, the self-cleavage amounted to 1.3.

In the case of A43C G80U, the self-cleavage was 0.0825.

Turning to C48A G74C, the self-cleavage worked out at 0.208.

Consider C21A G25A, for which the self-cleavage turned out to be 0.116.

For the variant G5C G54U, the self-cleavage is 0.217.

As to G38A A71C, the self-cleavage was 0.032.

Regarding C64U A71G, the self-cleavage stood at 1.07.

In the case of C21U C33A, the self-cleavage was determined as 0.

For A77G A87C, the self-cleavage stood at 0.735.

C57A U69A: the self-cleavage came out at 0.969.

As to A51C C64G, the self-cleavage was found to be 1.09.
